Consider 9 molecules from patent US20240287172A1 (SCIRHOM, published 2024).

The target of this assay is T1, hiR2-FL-E557D-T7 (human, UniProt Q6PJF5 1-856).
T1 sequence: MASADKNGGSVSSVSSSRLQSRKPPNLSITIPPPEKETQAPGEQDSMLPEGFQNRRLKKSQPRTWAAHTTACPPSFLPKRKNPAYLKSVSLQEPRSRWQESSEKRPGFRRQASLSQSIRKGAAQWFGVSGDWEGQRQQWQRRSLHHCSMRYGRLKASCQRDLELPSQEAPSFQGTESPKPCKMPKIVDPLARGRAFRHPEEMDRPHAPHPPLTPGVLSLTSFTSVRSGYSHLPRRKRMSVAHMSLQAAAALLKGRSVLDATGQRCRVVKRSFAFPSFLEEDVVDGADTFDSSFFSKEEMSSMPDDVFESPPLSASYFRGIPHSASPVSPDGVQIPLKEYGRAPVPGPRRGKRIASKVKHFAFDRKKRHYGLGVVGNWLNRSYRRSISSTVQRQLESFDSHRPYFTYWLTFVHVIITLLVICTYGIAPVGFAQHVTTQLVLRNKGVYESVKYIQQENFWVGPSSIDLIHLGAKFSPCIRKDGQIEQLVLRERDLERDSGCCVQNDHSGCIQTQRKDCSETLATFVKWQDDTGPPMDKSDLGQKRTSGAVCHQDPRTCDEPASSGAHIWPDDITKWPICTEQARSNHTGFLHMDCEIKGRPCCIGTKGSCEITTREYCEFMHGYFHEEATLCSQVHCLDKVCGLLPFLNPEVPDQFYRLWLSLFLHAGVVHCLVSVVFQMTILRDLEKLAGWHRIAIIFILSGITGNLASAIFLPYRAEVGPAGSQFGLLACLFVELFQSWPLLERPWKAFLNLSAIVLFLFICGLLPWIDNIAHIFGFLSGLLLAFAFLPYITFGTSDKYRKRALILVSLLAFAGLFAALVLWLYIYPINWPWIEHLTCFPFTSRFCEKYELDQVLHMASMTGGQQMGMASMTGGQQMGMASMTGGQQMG
The assay is described as follows: FACS, MEF-DKO cells, 3 µg/ml. For orientation: A flow cytometer gives signals particle by particle.

B1: antibody 3 (antibody, V domains shown)
VH: QVTLKESGPGILQPSQTLSLTCSFSGFSLTTFAMGIGWVRQPSGKGLEWLAHIWWDGEKYNNPVLKSRLTISKDTSKNQVFLRIANVDTPDTATYYCARISSIYYIIDNWGQGTSVTVSS
VL: DIVLTQSPATLSVTPGHSVSLSCRASQSISNNLHWYQKKSHESPRLLIKYVSQSISGIPSRFSGSGSGTDFTLSINSVETEDFGMYFCQQSYNWPLTFGAGTKLELK
notes: mouse IgG, kappa light chain; also called clone #3; purified antibody 3
On to B1, for which the “loss of binding vs wild type” value is not below 60%.

B2: antibody 34 (antibody, V domains shown)
VH: QVTLKESGPGILQPSQTLSLTCSFSGFSLSTFSLGVGWIRQSSGKGLEWLAHIWWDDEKYYNPALKSRLTISKDTSKNQVFLKIANVDAADTATYYCARAYYSKSYYALDYWGQGTSVTVSS
VL: DIQMTQSPSSLSASLGERVSLTCRASQEISGYLSWLQQKPDGTIKRLIYAASTLDSGVPKRFSGSRSGSDYSLAISSLESEDFADYYCLQYANFPFTFGSGTKLEIK
notes: mouse IgG, kappa light chain; also called clone #34; purified antibody 34
In the case of B2, the “loss of binding vs wild type” value is not below 60%.

B3: antibody 48 (antibody, V domains shown)
VH: QVQLQQSGTELVRPGTSVKVSCKASGYAFTNYLIEWVKQRPGQGLEWIGVINPGSGFTKYNEKFKGKATLTADKSSSTVYMHLSSLTSEDSAVYFCARGLYRAMDYWGQGTSVTVSS
VL: DIQMTQSPASQSASLGESVTITCLASQTIATWLAWYQQKPGKSPQLLIYGATTLADGVPSRFSGGGSGTKFSFKISSLQAEDFVSYYCQQLYSTPYTFGGGTKLEIK
notes: mouse IgG, kappa light chain; also called clone #48; purified antibody 48
Turning to B3, the “loss of binding vs wild type” value was not below 30%.

B4: antibody 50 (antibody, V domains shown)
VH: QVQLQQSGAELVRPGASVKVSCKASGYAFSNYLIEWVKQRPGQGLEWIGVINPGSGFTKYNEKFKGKATLTADKSSSTAYMQLSSLTSEDSAVYFCARGLYRAMDYWGQGTSVTVSS
VL: DIQMTQSPASQSASLGESVTITCLASQTIGTWLAWYQQKPGKSPQLLIYAAASLADGVPSRFSGGGSGTKFSFKISSLQAEDFVNYYCQQIYSTPYTFGGGTKLEIK
notes: mouse IgG, kappa light chain; also called clone #50; purified antibody 50
B4: the “loss of binding vs wild type” value is not below 30%.

B5: antibody 5 (antibody, V domains shown)
VH: QVTLKESGPGILQPSQTLSLTCSFSGFSLSTFGMGVGWIRQPSGKGLEWLAHIWWDDEKYYNSALKSRLTISKATSKNQAFLKIANVDTADTATYYCARISNYGSNYWYFNVWGTGTTVTVSS
VL: QVVLTQSPALMSASPGEKVTMTCSAGSSVSCMYWYQQKPGSSPRVLIYDTSNLASGVPARFTGSGSGTSYSLTISRMEAEDAASYYCQQWNSYPLTFGAGTKLELK
notes: mouse IgG, kappa light chain; also called clone #5; purified antibody 5
Take B5: the “loss of binding vs wild type” value was not below 60%.

B6: antibody 44 (antibody, V domains shown)
VH: QVTLKESGPGILQPSQTLSLTCSFSGFSLSTFGMGVGWIRQPSEKGLEWLAHIWWDDDKYYNPALKSRLTISKDTSKNQIFLKITNVDTAETATYYCSRIGNYGSNYWYFDVWGTGTTVTVSS
VL: QIVLTQSPAVMSASPGEKVTMTCTASSSVYYMYWYQQTPGSSPRLLIYDTSNLASGVPVRFSGSGSGTSYSLTISRMEAEDAATYYCQQWNTYPLTFGAGTKLELK
notes: mouse IgG, kappa light chain; also called clone #44; purified antibody 44
B6: the “loss of binding vs wild type” value is not below 30%.

B7: antibody 43 (antibody, V domains shown)
VH: QVALKESGPGILQPSQTLSLTCSFSGFSLSTFGMGVGWIRQSSGKGLEWLANIWWDDDKYYNPALKSRLTISKDASKNQAFLKIANVDTADTATYYCARIGNYGSNYWYFDVWGTGTTVTVSS
VL: QIVLTQSPAIMSASPGERVTMTCSANSRISYMYWYQQKPGSSPRLLIYDTSNLASGVPVRFSGSGSGTSYSLTISRMEAEDAATYNCQQWSSYPLTFGAGTKLELK
notes: mouse IgG, kappa light chain; also called clone #43; purified antibody 43
As to B7, the “loss of binding vs wild type” value is not below 30%.

B8: antibody 42 (antibody, V domains shown)
VH: QVTLKESGPGILQPSQTLSLTCSLSGFSLSTFGRGVGWIRQPSGKGLEWLAHIWWDDEKYYNPALKSRLTISKDTSKNQVFLRIANVDTADTATYYCARIQNYGSNYWYFDVWGTGTTVTVSS
VL: LIVLTQSPAIMSASPGEKVTMTCGATSRISYMFWYQQKPGSSPRVLIYDTSNLASGVPVRFSGSGSGTSYSLTISRVEAEDVATYYCQQWNSYPLTFGAGTKLELK
notes: mouse IgG, kappa light chain; also called clone #42; purified antibody 42
As for B8, the “loss of binding vs wild type” value is not below 30%.

B9: antibody 22 (antibody, V domains shown)
VH: QVTLKESGPGILQPSQTLSLTCSFSGFSLSTFGMGVGWIRQPSGKGLEWLAHIWWDDEKYYNSALKSRLTISKATSKNQVFLKIANVDTADTATYYCARISNYGSNYWYFNVWGTGTTVTVSS
VL: QVVLTQSPALMSASPGEKVTMTCSAGSSVSYMYWYQQKPGSSPRVLIYDTSNLASGVPARFTGSGSGTSYSLTISRMEAEDAATYYCQQWNSYPLTFGAGTKLELK
notes: mouse IgG, kappa light chain; also called clone #22; purified antibody 22
Regarding B9, the “loss of binding vs wild type” value was not below 30%.
